Experimental data reported in paper PMC6691574.

What was measured:
[1] = fluorescent FA uptake kit, time course, SGC 7901; conditions: glycan lost; control: wild-type CD36
[2] = Nile red staining after PA, SGC 7901; conditions: glycan lost; control: wild-type CD36

Protein	other: transport activity [1]	other: transport activity [2]
CD36: S468A (protein) parent chain: MGCDRNCGLIAGAVIGAVLAVFGGILMPVGDLLIQKTIKKQVVLEEGTIAFKNWVKTGTEVYRQFWIFDVQNPQEVMMNSSNIQVKQRGPYTYRVRFLAKENVTQDAEDNTVSFLQPNGAIFEPSLSVGTEADNFTVLNLAVAAASHIYQNQFVQMILNSLINKSKSSMFQVRTLRELLWGYRDPFLSLVPYPVTTTVGLFYPYNNTADGVYKVFNGKDNISKVAIIDTYKGKRNLSYWESHCDMINGTDAASFPPFVEKSQVLQFFSSDICRSIYAVFESDVNLKGIPVYRFVLPSKAFASPVENPDNYCFCTEKIISKNCTSYGVLDISKCKEGRPVYISLPHFLYASPDVSEPIDGLNPNEEEHRTYLDIEPITGFTLQFAKRLQVNLLVKPSEKIQVLKNLKRNYIVPILWLNETGTIGDEKANMFRSQVTGKINLLGLIEMILLSVGVVMFVAFMISYCACRSKTIK	decreases	decreases
CD36: T470A (protein) parent chain: MGCDRNCGLIAGAVIGAVLAVFGGILMPVGDLLIQKTIKKQVVLEEGTIAFKNWVKTGTEVYRQFWIFDVQNPQEVMMNSSNIQVKQRGPYTYRVRFLAKENVTQDAEDNTVSFLQPNGAIFEPSLSVGTEADNFTVLNLAVAAASHIYQNQFVQMILNSLINKSKSSMFQVRTLRELLWGYRDPFLSLVPYPVTTTVGLFYPYNNTADGVYKVFNGKDNISKVAIIDTYKGKRNLSYWESHCDMINGTDAASFPPFVEKSQVLQFFSSDICRSIYAVFESDVNLKGIPVYRFVLPSKAFASPVENPDNYCFCTEKIISKNCTSYGVLDISKCKEGRPVYISLPHFLYASPDVSEPIDGLNPNEEEHRTYLDIEPITGFTLQFAKRLQVNLLVKPSEKIQVLKNLKRNYIVPILWLNETGTIGDEKANMFRSQVTGKINLLGLIEMILLSVGVVMFVAFMISYCACRSKTIK	decreases	decreases
CD36: S468A/T470A (protein) parent chain: MGCDRNCGLIAGAVIGAVLAVFGGILMPVGDLLIQKTIKKQVVLEEGTIAFKNWVKTGTEVYRQFWIFDVQNPQEVMMNSSNIQVKQRGPYTYRVRFLAKENVTQDAEDNTVSFLQPNGAIFEPSLSVGTEADNFTVLNLAVAAASHIYQNQFVQMILNSLINKSKSSMFQVRTLRELLWGYRDPFLSLVPYPVTTTVGLFYPYNNTADGVYKVFNGKDNISKVAIIDTYKGKRNLSYWESHCDMINGTDAASFPPFVEKSQVLQFFSSDICRSIYAVFESDVNLKGIPVYRFVLPSKAFASPVENPDNYCFCTEKIISKNCTSYGVLDISKCKEGRPVYISLPHFLYASPDVSEPIDGLNPNEEEHRTYLDIEPITGFTLQFAKRLQVNLLVKPSEKIQVLKNLKRNYIVPILWLNETGTIGDEKANMFRSQVTGKINLLGLIEMILLSVGVVMFVAFMISYCACRSKTIK	decreases	decreases
